Assay results: patent publication US20240117018A1

Key:
Test in all cases: cell-based or functional assay
[1] = target: HIV-1 Env pseudovirus 231965.c01 (HIV-1)
[2] = target: HIV-1 Env pseudovirus 3103.v3.c10 (HIV-1)
[3] = target: HIV-1 Env pseudovirus 3301.v1.c24 (HIV-1)
[4] = target: HIV-1 Env pseudovirus 6480.v4.c25 (HIV-1)
[5] = target: HIV-1 Env pseudovirus 6811.v7.c18 (HIV-1)
[6] = target: HIV-1 Env pseudovirus C4118.c09 (HIV-1)
[7] = target: HIV-1 Env pseudovirus R2184.c04 (HIV-1)
[8] = target: HIV-1 Env pseudovirus X1193_c1 (HIV-1)
[9] = target: HIV-1 Env pseudovirus R3265.c06 (HIV-1)

Row | Substance | IC50 (Titer in TZM.bl cells) [1] | IC80 (Titer in TZM.bl cells) [1] | IC50 (Titer in TZM.bl cells) [2] | IC80 (Titer in TZM.bl cells) [2] | IC50 (Titer in TZM.bl cells) [3] | IC80 (Titer in TZM.bl cells) [3] | IC50 (Titer in TZM.bl cells) [4] | IC80 (Titer in TZM.bl cells) [4] | IC50 (Titer in TZM.bl cells) [5] | IC80 (Titer in TZM.bl cells) [5] | IC50 (Titer in TZM.bl cells) [6] | IC80 (Titer in TZM.bl cells) [6] | IC50 (Titer in TZM.bl cells) [7] | IC80 (Titer in TZM.bl cells) [7] | IC50 (Titer in TZM.bl cells) [8] | IC80 (Titer in TZM.bl cells) [8] | IC50 (Titer in TZM.bl cells) [9] | IC80 (Titer in TZM.bl cells) [9]
1 | VRC07 (antibody) | 0.085 µg/mL | 0.263 µg/mL | 0.675 µg/mL | 1.95 µg/mL | 0.027 µg/mL | 0.073 µg/mL | 0.032 µg/mL | 0.134 µg/mL | 0.093 µg/mL | 0.435 µg/mL | 0.121 µg/mL | 0.444 µg/mL | 0.02 µg/mL | 0.104 µg/mL | 0.037 µg/mL | 0.249 µg/mL |  | 
2 | 3BNC117 (antibody) | 0.05 µg/mL | 0.22 µg/mL | 0.22 µg/mL | 0.85 µg/mL | 0.01 µg/mL | 0.05 µg/mL | 0.01 µg/mL | 0.04 µg/mL | 0.03 µg/mL | 0.17 µg/mL | 0.09 µg/mL | 0.52 µg/mL | 0.03 µg/mL | 0.1 µg/mL | 0.06 µg/mL | 0.25 µg/mL | 0.48 µg/mL | 13 µg/mL
3 | 8ANC195 (antibody) | 2.36 µg/mL | 2.36 µg/mL | 48.1 µg/mL | > 50 µg/mL | > 50 µg/mL | > 50 µg/mL | 0.16 µg/mL | 1.13 µg/mL | 5.34 µg/mL | 27.6 µg/mL | 0.2 µg/mL | 0.71 µg/mL | 0.09 µg/mL | 13 µg/mL | 0.27 µg/mL | 1.66 µg/mL | 50 µg/mL | > 50 µg/mL
